Laboratory results from patent US6218527.

Key:
[1] = target: T1, ABF1 (Arabidopsis thaliana) (UniProt Q9M7Q5); experiment: one_hybrid
T1 sequence: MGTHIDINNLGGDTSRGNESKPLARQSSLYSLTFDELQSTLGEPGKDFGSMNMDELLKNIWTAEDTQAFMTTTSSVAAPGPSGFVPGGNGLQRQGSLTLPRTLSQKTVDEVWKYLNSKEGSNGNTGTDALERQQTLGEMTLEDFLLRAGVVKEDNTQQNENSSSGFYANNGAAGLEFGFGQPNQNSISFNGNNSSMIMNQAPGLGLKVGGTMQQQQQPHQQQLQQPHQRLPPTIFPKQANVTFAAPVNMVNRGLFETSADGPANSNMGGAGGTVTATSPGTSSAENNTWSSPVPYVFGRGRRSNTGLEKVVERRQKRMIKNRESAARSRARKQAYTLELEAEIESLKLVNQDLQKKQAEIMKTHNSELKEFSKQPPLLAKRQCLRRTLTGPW

[2] = test system: ABF2 (Arabidopsis thaliana); experiment: one_hybrid

Em1a trimer reporter
activity (fold over control vector) [1]: 6
activity (fold over background) [2]: 2
